{"source": "paper PMC4191430", "about": "(Nucleic Acids Research, 2014)", "molecular_target": "T1, HA-Fbxl5 (human (cDNA from A549 cells), UniProt Q9UKA1 1-691)", "T1 sequence (looked up)": "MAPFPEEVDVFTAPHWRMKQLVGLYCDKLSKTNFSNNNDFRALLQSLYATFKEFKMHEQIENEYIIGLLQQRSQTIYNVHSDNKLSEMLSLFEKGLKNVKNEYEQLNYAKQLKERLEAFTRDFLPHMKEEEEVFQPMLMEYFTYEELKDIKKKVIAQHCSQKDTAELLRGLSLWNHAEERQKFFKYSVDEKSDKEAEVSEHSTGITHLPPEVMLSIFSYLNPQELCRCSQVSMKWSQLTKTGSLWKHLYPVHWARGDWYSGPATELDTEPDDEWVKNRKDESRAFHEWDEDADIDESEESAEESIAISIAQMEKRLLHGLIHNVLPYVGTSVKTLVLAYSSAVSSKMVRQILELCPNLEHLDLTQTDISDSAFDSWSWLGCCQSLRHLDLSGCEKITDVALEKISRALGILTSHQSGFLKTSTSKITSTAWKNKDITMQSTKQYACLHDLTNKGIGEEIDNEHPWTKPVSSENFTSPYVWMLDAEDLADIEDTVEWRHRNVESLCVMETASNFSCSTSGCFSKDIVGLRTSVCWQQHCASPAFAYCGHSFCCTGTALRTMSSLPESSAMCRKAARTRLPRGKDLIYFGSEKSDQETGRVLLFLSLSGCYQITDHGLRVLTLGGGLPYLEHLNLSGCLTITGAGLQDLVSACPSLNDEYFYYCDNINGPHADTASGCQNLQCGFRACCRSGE", "assay": "pull-down"}
{"binder": "GST-hSSB1 (natural protein, human (cDNA from A549 cells), UniProt Q9BQ15 1-211, looked up) MTTETFVKDIKPGLKNLNLIFIVLETGRVTKTKDGHEVRTCKVADKTGSINISVWDDVGNLIQPGDIIRLTKGYASVFKGCLTLYTGRGGDLQKIGEFCMVYSEVPNFSEPNPEYSTQQAPNKAVQNDSNPSASQPTTGPSAASPASENQNGNGLSAPPGPGGGPHPPHTPSHPPSTRITRSQPNHTPAGPPGPSSNPVSNGKETRRSSKR", "values": [{"measurement": "binding result", "result": "binds"}]}
